{
  "source": "the DeepSol protein solubility set",
  "data": [
    {"assay": "soluble on expression in E. coli; label from the status in PepcDB or PDB records", "values": [
      {"sequence": "MNDYAAMPSEDREVGALSLPPHSMEAEQSVLGGLMLENPAWDRIADVVSGEDFYRHEHRLIFRSIAKLINESRPADVITVQEDLQRNEELEAAGGFEYLITLAQNTPSAANIRRYAEIVRERSIMRQLAEVGTEIARSAYNPQGRDAGQLLDEAENKVFQIAESTAKSKQGFLEMPDLLKEVVQRIDMLYSRDNPDEVTGVPTGFIDLDKKTSGLQPGDLIIVAGRPSMGKTAFSINIAEHVAVEGRLPVAVFSMEMGGAQLVMRMLGSVGRLDQSVLKTGRLEDEHWGRLNEAVVKLSDAPVYIDETPGLTALELRARARRLARQFNNKLGLIVIDYLQLMAGSGRSDNRASELGEISRSLKALAKELQVPIIALSQLSRTVESRTDKRPMMSDLRESGAIEQDADLIMFMYRDEYYNQDSPMKGLAECIIGKHRNGPVGKIFLTWTGQFTKFDNAAYIPEEAKIED", "soluble on expression in E. coli": "not soluble"},
      {"sequence": "MGSDKIHHHHHHMRLTCAIIDDEPLAVSLLESYVLKTPFLDLQGTYNSALDALSDLRDRPVDLLFLDIQMPELSGLEFSRILNADTRVIFTTAFDQYAVDSYRVNALDYLLKPISYPDFLASANKALRWYELLRKPVSSEEKEGSAPIAEKGGMESIFVKSEYKLLQIELRKILYIEGLKDYVKIFVEDEPRPVLSLMSMKSLEDMLPSDRFVRVHRSFIVQPEKIKVIERNRIVFGKEYIPISDNYKQHFLEMIERRSILPK", "soluble on expression in E. coli": "not soluble"},
      {"sequence": "MSLTEILIVEDDDIIATLIERFLLQREYVVCAKVATGEDALYKAAEHLPDLVLMDINLAGKIDGITATKFITAIFHIPVIFLSGQDDETTLERATMAEPASFIIKPFNAKDLYSNIEIALHNDRILKRSKDYKGGKIRRIARAALSELDAYFILDKRGRIVFINPYGEHLLNVHRNDIILKPIGKYLTFYDTRQNTVFTDTFQDVIRESLVLGVRQHIAVKMSDNSFRHVVIQSTSIRDSENETIGMIVRMHMKTKSEEGHHHHHH", "soluble on expression in E. coli": "soluble"},
      {"sequence": "MVEERIINLSHEIKNFVYPNDPEFIVKTKKNGKYSVSELNMGVHTGTHIDYPMHVGLTNEKFENVFGKGYCVSLENMNDFFKNAPKNLEILLIKTDFSKYWEDPEYFEKECDIENHVEKLISMNLKAVGIDCCSIGNFSVHEKLLSSKIKIIENMKNLEILENKTFKFFGFPLNIEKIDGSPINAVAFLLEHHHHHH", "soluble on expression in E. coli": "not soluble"},
      {"sequence": "MAHHHHHHMIEDNIDENCQIYLNPKNWLKEFENTKINENDINEVLMNYFCVHRMYDVAKEFQKESNVKPDMPINTVKIRYLIQNEIMNNKIEEAIEHINNLDKGILKKHKDLVFFLKKQQLLKLILNNNINEAIIYSQQELASYVKEKPSLINEIDDVMMLMAYQDFNNEEAKNLIQKIEKKKNTLKRIDDIILNYYNVDSESTLEYMVKNVFFTQNVLSSKYPCSVPKIKNLKSGYIEYYEKYKKKKRKSSSKKYRSKDKDKVDKHDKKNVDNIVKDFDVTNDEEYRSV", "soluble on expression in E. coli": "not soluble"},
      {"sequence": "MSLRHVRERGVLVATLQRLAEQDPLTGIANRQGFQALLNARLAENEGRGVALGHLDLDNFRHVNDALGHQSGDRLILQVVARLKHQLEAGDQLARLGSDEFALLIDTRRDANRAEWIAERIVEALAEPYWIDGESLLLGCSLGIAHARAQSGADPLMWHAHIAMRQAKGSQGCTFHVFNERINRNARSLADLESELRRALRRDELELHYQPRLNLADGRIVGLEALVRWRHAERGLLPPSEFVPLAEQSGLIVPLGYWVISRALRDMQALCERGLEPLHMAVNLSFRQFQDSQLLATLSRLILEHGVDARWLEFELTETAVMRRNEVVRQTMDALGRLGVRFSLDDFGTGFSSFVHLNSLPITLLKVDRSFVAEMEMREENRKLVHAMINLAHNLNLEVVAEGVESEEQLTLLRGFGCDQVQGFLVSRPLPIGELMAYLLQAPGRQLEGEGHHHHHH", "soluble on expression in E. coli": "soluble"},
      {"sequence": "GAMATGSRIGGGIDVPVPRHSVGVVIGRSGEMIKKIQNDAGVRIQFKQDDGTGPEKIAHIMGPPDRCEHAARIINDLLQSLRSGPPGPPGGPGMPPGGRGRGRGQG", "soluble on expression in E. coli": "soluble"},
      {"sequence": "MVKESIPKEGENIKIQSYKHDGNIHRVWSETTILKGTEHVIIGGNDHTLVTESDGRTWITREPAIVYFHSEYWFNVICMFREDGIYYYCNLSSPFACDEEALKYIDYDLDIKVYPNGKYHLLDEDEYEQHMNQMNYPHDIDIILRRNVDILQQWIEQKKGPFAPDFIKVWKERYKKIRDY", "soluble on expression in E. coli": "not soluble"},
      {"sequence": "MWSEYSLEVVDAVARNGSFSAAAQELHRVPSAVSYTVRQLEEWLAVPLFERRHRDVELTAAGAWFLKEGRSVVKKMQITRQQCQQIANGWRGQLAIAVDNIVRPERTRQMIVDFYRHFDDVELLVFQEVFNGVWDALSDGRVELAIGATRAIPVGGRYTFRDMGMLSWSCVVASHHPLALMDGPFSDDTLRNWPSLVREDTSRTLPKRITWLLDNQKRLVVPDWESSATCISAGLCIGMVPTHFAKPWLNEGKWVALELENPFPDSACCLTWQQNDMSPALTWLLEYLGDSETLNKEWLREPEETPATGD", "soluble on expression in E. coli": "not soluble"},
      {"sequence": "MSLNDSRLLPVGSSPLEVAAARACAEIERTPVNIRALWNPDTCPENLLPWLAWAFSVDRWDENWPEGTKRAVIRDAYFIHCHKGTIGAIRRVVEPLGYVINVTEWWESSDPPGTFRLDIGVLESGITEEMYFEMERLIADAKPASRHLTGLNIVQDIPGYLYTGGVSCDGDIITVYPGEGHHHHHH", "soluble on expression in E. coli": "not soluble"},
      {"sequence": "MTVTFTLPLDCSFNNLWTCHAEGIERDLGKVGGGAASSGKTSTGVSRTVTRGVNLSGADFSEQDLSGVSFQQSLLRETDFHGAKLVSASFFGAELSYANLEDADLTEANLELANLRSAKLKNAVLRRAYFSGNTRLENVDIDGADFSEVILRKDQKKYLCNIANGTNSHTGVETKTSLGCNSS", "soluble on expression in E. coli": "not soluble"},
      {"sequence": "MTDSKYFTTTKKGEIFELKNELNSDKKEKKKEAVKKVIASMTVGKDVSALFPDVVNCMQTDNVELKKLVYLYLMNYAKSQPDLAIMAVNTFVKDCEDPNPLIRALAVRTMGCIRVEKITEYLCDPLRRCMKDEDPYVRKTAAVCVAKLHDMNPALVKEQGFVELLNDLLSDANPMVVANAVAALTEMNEQQTVIEVNSQMVNKLLTALNECTEWGQVFILDALAGYTPRDERETQNICERISPRLAHANAAVVLSTVKVLMKLIDMMPADSDFITQLTKKLAPPMVTLLSAEPEIQYVALRNINLIVQKRPDILKQEMKVFFVKYNDPIYVKMEKLDIMIRLAQQNNIAQVLSELKEYATEVDVDFVRKSVRAIGRCAIKVEASSERCVQTLLELIQTKVNYVVQEAVVVIKDIFRKYPNRYESIISALCENLDTLDEPEARASMIWIIGEYAERIDNADELLESFVEGFHDENTQVQLQLLTAVVKLFLKRPGVAQALVQRVLSLATQDSDNPDLRDRGFIYWRLLSADPAAAKNVVLTEKPLISEETDLLEPSLLEQLVCHIGTLASVYHKPPSAFIDPAKAPLRQINPIPAAKFGSSLLDTSSTPNAARNGSAAAPTVIPSQDQVIADLLSLDLNAPAASANTGAFGGAMSGTTSMGGLDDLLGLGGDPMPAAPTNSASYNPFDGLGGLGGAAPAAPPSQQPASIGGLAEIFGSGGFGGSSGITYPKELWLDASKAMGMQVEGTFVRRGGKIFMEMTITNRAMQAISGFALQFNKNSFGLIPVEQVNPAPILPNQSQNYTIACDTTGAVQVTTPLTNLQVSCSL", "soluble on expression in E. coli": "not soluble"},
      {"sequence": "MSLRTTIADVAQAAGVSVSTVSRALRGLDRVSPETRERIEQEAKRLHFSFSKSASSLASGKTMRVAVLLPNEISSWFNAHAFEGIYEVMSKAGYDIVPYIVWTQDDLDAFFQNLPGNRNVDAVIEASFDFDEAKKQVLGNLTIPVVGMNAPSTHGLDAGVAIDDEASMATIVRFLKSLGHKTLAYIEQPINTTPFVCSDRLRKKGFSEASQACGYADEDIIVMPSLSHIDARSEQDIYSGIVAQLLSAPKQPTAICVSVDAVAAPLLKELRRMGWRVPQDVSLVGFDDDDTATALDLTTMHQDPAEIGRIAARKTLALLNGETLDEPFTVMPTSLVLRGTTERVSEGHHHHHH", "soluble on expression in E. coli": "soluble"},
      {"sequence": "MAGDPMKQFAQTYYLLQFIICLICLSISCGEGGNDNYSETNDERNKEPEITVSPITNLEAKSTQIANQLLITWQNPNTPNLLGVELSYLQKNGGTHNGKQIIQGAAGKTGNYTLQLPQYGTYEISAIAIDNYGHRSSAVTVIATPAETTVPFSWATLADSCTYVLIEQFMNKSKGTFWSTPKDMSDESTYIYWQQAHAMDVVIYSYKRIKDTNKQLAATYRTYFERWYANHANNYHRNPSDETGFLNDFTDDMCWICLTLIHLSEATGDEKFAQTAKIVYDKYIITRAWTDDKGTGLPWNTTQNDRNACTNSPGCLVAAKLYQRYEDGNYLSDAKKLYEYVVNNSYNADGRVEEPPLTYTQGTFGEACRQLYHITQESKYMDKAKQVINYAATSDRCLRNGILRDEGSSMDQSIFKSVYIPYAVNLALDEASSSIGKHLITFLKNNAETLRMNLNHAAYPAMYCNYWWGEMWKSSEPASMGAQVSGASLMEGIARLEAAALEHHHHHH", "soluble on expression in E. coli": "not soluble"},
      {"sequence": "MIRELFEKEGFTLDEEQERKFSIYLQELLRWNKVHNLTSIKKPEEIVRRHFIDSVSVVRCFERIGLDLRGKHFADVGSGAGFPGVPLKIYLKDIKLTLIESVSKKCSFLEYLKIKLNEDYRVLCTRAEKVEEKFDVVLARALGEFEEVKEILEKLSIGYVFVYKGSKLKEEWLKDYKLCELSLSFMPKSYILWKKVLEHHHHHH", "soluble on expression in E. coli": "not soluble"},
      {"sequence": "QGTDQYTILANRIANAVEQYRSQRALDASRERLSLFIDKSPLGVIEWDESFEVVQVNEKGEEILRRGESALAGKGFETLVPDSALDAVEETITALQEGSGGYYTVLDIETGDGEEIVCEWHNRIIREDGETVAIFSQFQEIT", "soluble on expression in E. coli": "not soluble"},
      {"sequence": "MAHHHHHHMSVRERAVVLVDGPAVVHRWYHRWSYTSKHTPVDVKRFTITNARHIIATAHSFDPSHLAQHLLSPQVEYAHTPKHNKIIVCFDQGDGGRRELYPAYKENRAEREHAAELSVIKKVAIKVFTGEPKNTLIVLPDLDAKLKDVDAEADDIIATLALHNQQLKIPTVVMSHDYDLYQLIDEANKCYHYDIRTKHLVSEKGVIERVGVHPKLVRDYKSLAGDSSDNIPGVKGIGKTRALQLLKKYGDLEGVLTKGKKKQGGHLGDLLRAGAADAELSRKLVELRSCPKVLKACEAFMKL", "soluble on expression in E. coli": "soluble"},
      {"sequence": "VVPGDASSVVSVNPAKPLISVCIPMYNNGATIERCLRSILEQEGVEFEIVVVDDDSSDDCAAIAATMLRPGDRLLRNEPRLGLNRNHNKCLEVARGGLIQFVHGDDRLLPGALQTLSRRFEDPSVGMAFAPRRVESDDIKWQQRYGRVHTRFRKLRDRNHGPSLVLQMVLHGAKENWIGEPTAVMFRRQLALDAGGFRTDIYQLVDVDFWLRLMLRSAVCFVPHELSVRRHTAATETTRVMATRRNVLDRQRILTWLIVDPLSPNSVRSAAALWWIPAWLAMIVEVAVLGPQRRTHLKALAPAPFREFAHARRQLPMAD", "soluble on expression in E. coli": "not soluble"},
      {"sequence": "MSLKILVIGPSWVGDMVMSQSLYQRLKQQHPDAQIDVLAPAWCKPILERMPEVNQAIEMTIGHGAFNLLGRRAIGCELRDNRYTHAIVLPNSAKSALIPWFANIPKRTGWKGEFRYGLLNDLRPDKRVFQYMVERYVALAHPKATMLADVSLEHCPRPKLVIDAIVQQAARQRLSLVSSRPVIGLCPGAEFGPAKRWPDHYYAEVARYAIEQGFQVWLFGSAKDHSVTTQIQQALSEEQREYCANLAGETSLIEAVDLLAACHTVVSNDSGLMHVSAAVGCNIVAIYGSSSPKYTPPLTDKLAVVHTEIECRPCFKRVCPLEHLNCLNQLKPAQVIKALDKFIGKDSEGHHHHHH", "soluble on expression in E. coli": "soluble"},
      {"sequence": "MSEREHWQRVYESKPSDAVSWFQAEATLSLDLIRRIGAPREAAIIDVGGGASTLVDGLLAEGFGDLTVLDLSDAALRVARNRLGARGEEVRWIAGDITGVDLPEATYDVWHDRAVFHFLTTAEARRAYVRQVMKAVRHGGHVIVATFAADGPTECSGLPVMRYDADELHAEFGSAFQLTEHRDEHHVTPAGRVQHFVYCHCLKRLLEHHHHHH", "soluble on expression in E. coli": "not soluble"}
    ]}
  ]
}
